The target of assay [1] is T1, flotillin-1-GST fusion (rat, full length) (rat, UniProt Q9Z1E1 1-428).
T1 construct: full length rat flotillin-1 in the pET41a vector; pET41a may add further tags (His, S-tag) besides GST (surmised); also called Flot-GST; flotillin-GST; source: E. coli Rosetta (DE3) pLysS, purified (glutathione sepharose, eluted with reduced glutathione)
T1 sequence (looked up): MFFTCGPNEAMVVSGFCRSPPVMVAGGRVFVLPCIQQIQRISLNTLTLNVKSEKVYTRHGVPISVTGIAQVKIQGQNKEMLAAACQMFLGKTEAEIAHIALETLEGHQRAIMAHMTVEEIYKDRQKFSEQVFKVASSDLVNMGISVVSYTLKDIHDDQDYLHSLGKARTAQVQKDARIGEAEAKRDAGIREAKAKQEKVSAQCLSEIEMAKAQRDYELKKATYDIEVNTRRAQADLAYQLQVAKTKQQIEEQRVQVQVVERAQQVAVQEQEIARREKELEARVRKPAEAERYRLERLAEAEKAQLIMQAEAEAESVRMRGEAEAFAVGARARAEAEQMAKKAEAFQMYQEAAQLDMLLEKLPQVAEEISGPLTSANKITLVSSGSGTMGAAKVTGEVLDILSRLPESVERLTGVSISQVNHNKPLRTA
The assay can be described thus: pull-down; Dsg3-MBP (5 μg) immobilised on amylose resin, eluted flotillin-GST proteins in solution; 50 mM Tris-HCl pH 7.5, 150 mM NaCl, 0.01% Triton X-100, 1 mM DTT, 1 mM EDTA, 1% BSA, on ice 2-3 h; Western blot; MBP and GST as controls. The following applies: both partners purified.

Assay [2] has as its target T2, GST fusion of the cytoplasmic domain of human desmoglein-3 (human, UniProt P32926 641-999).
T2 construct: cytoplasmic domain of human desmoglein-3, cloned by PCR from HaCaT cells into pGEX-4T1; worked out from the printed primers: the forward primer begins with the codons for LTCDCGA, the reverse primer holds the stop codon (ends DPCSRLI-stop); also called Dsg3 tail; cytoplasmic tail of Dsg3; source: E. coli Rosetta (DE3) pLysS, purified (glutathione sepharose)
T2 sequence (looked up): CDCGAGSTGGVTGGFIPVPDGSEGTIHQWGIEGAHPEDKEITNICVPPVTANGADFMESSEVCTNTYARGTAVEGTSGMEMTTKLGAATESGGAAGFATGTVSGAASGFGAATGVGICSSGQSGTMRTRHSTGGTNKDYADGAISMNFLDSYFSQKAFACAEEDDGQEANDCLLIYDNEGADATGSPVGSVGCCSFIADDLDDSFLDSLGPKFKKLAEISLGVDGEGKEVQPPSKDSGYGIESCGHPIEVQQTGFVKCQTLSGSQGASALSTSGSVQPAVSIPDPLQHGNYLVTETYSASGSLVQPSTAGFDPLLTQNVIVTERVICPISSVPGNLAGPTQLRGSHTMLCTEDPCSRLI
As to the kind of experiment: pull-down; GST-tagged cytoplasmic domains of Dsg1-3 immobilised on glutathione sepharose, HaCaT lysate (1 mg), overnight at 4 °C; 10 mM Tris-HCl pH 8.0, 150 mM NaCl, 5 mM EDTA, 0.5% Triton X-100, 60 mM N-octylglucoside; Western blot; GST as negative control. The following applies: one partner purified. (In western blotting, separated proteins are transferred to a membrane and probed.)

B1: Dsg3-MBP fusion protein (domain or fragment, human, UniProt P32926 641-999, looked up)
chain: T2 sequence (looked up)
notes: cytoplasmic domain of human desmoglein-3, cloned by PCR from HaCaT cells into pMAL-c2X; worked out from the printed primers: the forward primer begins with the codons for LTCDCGA, the reverse primer holds the stop codon (ends DPCSRLI-stop); source: E. coli Rosetta (DE3) pLysS, purified (amylose resin)
Take B1: the binding result in assay [1] is reported as “binds”.

B2: flotillin-2 (natural protein, human (endogenous in HaCaT), UniProt Q14254 1-428, looked up)
chain: MGNCHTVGPNEALVVSGGCCGSDYKQYVFGGWAWAWWCISDTQRISLEIMTLQPRCEDVETAEGVALTVTGVAQVKIMTEKELLAVACEQFLGKNVQDIKNVVLQTLEGHLRSILGTLTVEQIYQDRDQFAKLVREVAAPDVGRMGIEILSFTIKDVYDKVDYLSSLGKTQTAVVQRDADIGVAEAERDAGIREAECKKEMLDVKFMADTKIADSKRAFELQKSAFSEEVNIKTAEAQLAYELQGAREQQKIRQEEIEIEVVQRKKQIAVEAQEILRTDKELIATVRRPAEAEAHRIQQIAEGEKVKQVLLAQAEAEKIRKIGEAEAAVIEAMGKAEAERMKLKAEAYQKYGDAAKMALVLEALPQIAAKIAAPLTKVDEIVVLSGDNSKVTSEVNRLLAELPASVHALTGVDLSKIPLIKKATGVQV
notes: flotillin-2, endogenous in human HaCaT keratinocytes; also called Flot-2; source: endogenous, HaCaT lysate
Take B2: in assay [2], the “relative amount pulled down (normalised to the fusion protein), against the Dsg1 and Dsg2 pulldowns” value is about 2 fold.

B3: flotillin-1 (natural protein, human (endogenous in HaCaT), UniProt O75955 1-427, looked up)
chain: MFFTCGPNEAMVVSGFCRSPPVMVAGGRVFVLPCIQQIQRISLNTLTLNVKSEKVYTRHGVPISVTGIAQVKIQGQNKEMLAAACQMFLGKTEAEIAHIALETLEGHQRAIMAHMTVEEIYKDRQKFSEQVFKVASSDLVNMGISVVSYTLKDIHDDQDYLHSLGKARTAQVQKDARIGEAEAKRDAGIREAKAKQEKVSAQYLSEIEMAKAQRDYELKKAAYDIEVNTRRAQADLAYQLQVAKTKQQIEEQRVQVQVVERAQQVAVQEQEIARREKELEARVRKPAEAERYKLERLAEAEKSQLIMQAEAEAASVRMRGEAEAFAIGARARAEAEQMAKKAEAFQLYQEAAQLDMLLEKLPQVAEEISGPLTSANKITLVSSGSGTMGAAKVTGEVLDILTRLPESVERLTGVSISQVNHKPLRTA
notes: flotillin-1, endogenous in human HaCaT keratinocytes; also called Flot-1; source: endogenous, HaCaT lysate
Take B3: in assay [2], the “relative amount pulled down (normalised to the fusion protein), against the Dsg1 and Dsg2 pulldowns” value was about 2 fold.
